The labels stand for the following.
B6: BMP2/6 heterodimer (ligand)
chain 1: QAKHKQRKRLKSSCKRHPLYVDFSDVGWNDWIVAPPGYHAFYCHGECPFPLADHLNSTNHAIVQTLVNSVNSKIPKACCVPTELSAISMLYLDENEKVVLKNYQDMVVEGCGCR
chain 2: SASSRRRQQSRNRSTQSQDVARVSSASDYNSSELKTACRKHELYVSFQDLGWQDWIIAPKGYAANYCDGECSFPLNAHMNATNHAIVQTLVHLMNPEYVPKPCCAPTKLNAISVLYFDDNSNVILKKYRNMVVRACGCH
notes: bone morphogenetic protein 2 chain of the BMP2/6 heterodimer; bone morphogenetic protein 6 chain of the BMP2/6 heterodimer; also called heterodimer of BMP2/6; source: bought: RND Systems #7145-BP-010/CF; copies: 1 + 1
B7: BMP6 homodimer (ligand, UniProt P22004 375-513, looked up)
chain: SASSRRRQQSRNRSTQSQDVARVSSASDYNSSELKTACRKHELYVSFQDLGWQDWIIAPKGYAANYCDGECSFPLNAHMNATNHAIVQTLVHLMNPEYVPKPCCAPTKLNAISVLYFDDNSNVILKKYRNMVVRACGCH
notes: bone morphogenetic protein 6; source: bought: RND Systems 507-BP-020/CF
B8: BMP2 homodimer (ligand, UniProt P12643 283-396, looked up)
chain: QAKHKQRKRLKSSCKRHPLYVDFSDVGWNDWIVAPPGYHAFYCHGECPFPLADHLNSTNHAIVQTLVNSVNSKIPKACCVPTELSAISMLYLDENEKVVLKNYQDMVVEGCGCR
notes: bone morphogenetic protein 2; source: bought: RND Systems #355-BM-010/CF

The target in assay [1] is B8. The experiment in a line: SPR; scan of overlapping synthetic 18-mer peptides of the ERFE N terminus over BMP2/6, BMP2 or BMP6; 180 s injection, then buffer wash. To be noted: both partners purified. (In general: Surface plasmon resonance follows binding to a sensor surface in real time, without labels.)
The target in assay [2] is B6. Described as above. The settings on record: both partners purified.
Assay [3] concerns the target B7. The assay is described as above. To be noted: both partners purified.
The target of assay [4] is B8. The experiment in a line: SPR; Biacore T200, CM5 chip; BMP2, BMP6 or BMP2/6 immobilised by amine coupling (50 μg/ml); purified bacterial untagged ERFE N-terminal variants or synthetic 53-mer segments as analyte; HBS-EP pH 7.4, 50 μl/min; KD = koff/kon at five concentrations. To be noted: both partners purified.
The target in assay [5] is B6. The description is as above. The settings on record: both partners purified.
The target in assay [6] is B7. Described as above. The settings on record: both partners purified.
Assay [7] addresses B8. The assay is described as above. To be noted: both partners purified. This is another data set of the same source.
In assay [8] the target is B6. The description is as above. To be noted: both partners purified. This is another data set of the same source.
In assay [9] the target is B7. The assay is described as above. To be noted: both partners purified. This is another data set of the same source.
For assay [10], the target named is T1, Full-length ERFE (erythroferrone), 43-354, FLAG-tagged (human, UniProt Q4G0M1 43-354).
T1 construct: human erythroferrone (ERFE), mature molecule, residues 43-354; pcDNA3.1(+) backbone; Predominantly a hexamer at low concentration on native PAGE, a smear of 117-460 kDa at high concentration; also called Full length, 43-354; WT, 43-354; source: HEK293T, transiently transfected, in supernatant; not shown: FLAG, N-terminal, kept
The experiment in a line: SPR; Biacore T200, CM5 chip; BMP2, BMP6 or BMP2/6 immobilised by amine coupling (50 μg/ml); FLAG-ERFE variants made in HEK293T as analyte; HBS-EP (0.15 M NaCl, 3 mM EDTA, 0.005% P20, 0.01 M Hepes pH 7.4), 50 μl/min; KD = koff/kon at five concentrations; the paper calls the constants avidities where binding is presumed multivalent. To be noted: one partner purified.

For assay [11], the target named is T1, Full-length ERFE (erythroferrone), …. The assay is described as above. The settings on record: one partner purified. This is another data set of the same source.

B1: ERFE 18-mer peptide 97-114 (peptide, UniProt Q4G0M1 97-114, looked up)
peptide: KRSRGKAKKLKFGLPGPP
notes: also called cationic 18-mer peptide; source: synthetic peptide (GenScript, ≥70% purity)
As for B1, the binding result with BMP2 homodimer [1], in the assay with BMP2/6 heterodimer [2] and with BMP6 homodimer [3] was “binds” each time.

B2: ERFE 18-mer peptide 133-150 (peptide, UniProt Q4G0M1 133-150, looked up)
peptide: LKEFQLLLKGAVRQRERA
notes: human erythroferrone (ERFE), residues 133-150; source: synthetic peptide (GenScript, ≥70% purity)
Regarding B2, the binding result with BMP2 homodimer [1], in the assay with BMP2/6 heterodimer [2] and with BMP6 homodimer [3] was “binds” throughout.

B3: ERFE N terminus ΔCollagen, 43-148 del109-125 (bacterial) (domain or fragment, human, UniProt Q4G0M1 43-148, looked up)
chain: EPPPGNELPRGPGESRAGPAARPPEPTAERAHSVDPRDAWMLFVRQSDKGVNGKKRSRGKAKKLKFIIPPEALLKEFQLLLKGAVRQRE
notes: also called bacterial ΔCollagen N terminus; source: E. coli Rosetta2(DE3)pLysS, purified (Ni-NTA, TEV cleavage, reverse IMAC); not shown: His6, N-terminal, cleaved; MBP, N-terminal, cleaved
Turning to B3, the dissociation rate constant (koff) (as a rule, the first-order rate constant of dissociation) with BMP2 homodimer [4] came to 0.0056 s⁻¹; with BMP2/6 heterodimer [5] it was 0.0052 s⁻¹; in the assay with BMP6 homodimer [6] it was 0.0085 s⁻¹. Moreover, the log kd in the assay with BMP2 homodimer [4] was -2.29; with BMP2/6 heterodimer [5], -2.29; in the assay with BMP6 homodimer [6] it was -2.17. The results for the Kd with BMP2 homodimer [7], with BMP2/6 heterodimer [8] and in the assay with BMP6 homodimer [9] were 3.13 nM, 50.1 nM and 0.756 nM, respectively. The entries for the “pKd (-log Kd)” value with BMP2 homodimer [7], in the assay with BMP2/6 heterodimer [8] and in the assay with BMP6 homodimer [9] were 8.7, 7.3 and 9.2, respectively.

B4: ERFE 18-mer peptide 73-90 (peptide, UniProt Q4G0M1 73-90, looked up)
peptide: AHSVDPRDAWMLFVRQSD
notes: human erythroferrone (ERFE), residues 73-90; source: synthetic peptide (GenScript, ≥70% purity)
On to B4, for which the binding result in the assay with BMP2 homodimer [1], with BMP2/6 heterodimer [2] and with BMP6 homodimer [3] was “binds” in each case.

B5: ERFE 18-mer peptide 121-138 (peptide, UniProt Q4G0M1 121-138, looked up)
peptide: GPPGPIIPPEALLKEFQL
notes: human erythroferrone (ERFE), residues 121-138; source: synthetic peptide (GenScript, ≥70% purity)
Take B5: the binding result in the assay with BMP2 homodimer [1], with BMP2/6 heterodimer [2] and with BMP6 homodimer [3] was “binds” in each case.

Regarding B6, in assay [10], the Kd (in general, the equilibrium constant for the complex coming apart) is 0.277 nM. For the same molecule, in assay [11], the dissociation rate constant (koff) came to 0.00022 s⁻¹.

In [10], B7 came in with a Kd of 0.817 nM. Further, the koff in [11] was determined as 0.00022 s⁻¹.

In assay [10], B8 showed a Kd of 0.445 nM. In addition, in [11], the dissociation rate constant (koff) was 9e-05 s⁻¹.

Values taken from publication PMC10692919, “Characterization of erythroferrone structural domains relevant to its iron-regulatory function” (The Journal of Biological Chemistry, 2023).
